According to publication PMC9398005, “A Drosophila Su(H) model of Adams-Oliver Syndrome reveals cofactor titration as a mechanism underlying developmental defects” (PLoS Genetics, 2021):

How the values were obtained:
Settings in all cases: both partners purified
[1] = target: T1, mouse Rbpj K195E (53-474) (mouse, UniProt P31266 53-474, K195E); assay: ITC; RAM peptide, Hairless or SHARP in the syringe, Su(H) or Rbpj in the cell; 50 mM sodium phosphate, 150 mM sodium chloride; 20 injections of 14 uL; triplicate; one site binding model; 20°C by the methods, 25°C by the legend of Fig 6
T1 construct: also called analogous to human RBPJ K169E; source: E. coli BL21 Tuner, pGEX-6P1, purified (glutathione resin, PreScission cleavage, SP ion exchange)

mouse Rbpj WT (53-474) = target: T2, mouse Rbpj WT (53-474) (mouse, UniProt P31266 53-474); assay: as above
T2 construct: also called CBF1; mouse CSL; source: E. coli BL21 Tuner, pGEX-6P1, purified (glutathione resin, PreScission cleavage, SP ion exchange)

mouse Rbpj E89G (53-474) = target: T3, mouse Rbpj E89G (53-474) (mouse, UniProt P31266 53-474, E89G); assay: as above
T3 construct: also called analogous to human RBPJ E63G; source: E. coli BL21 Tuner, pGEX-6P1, purified (glutathione resin, PreScission cleavage, SP ion exchange)

mouse Rbpj (53-474) WT = target: T4, mouse Rbpj (53-474) WT (mouse, UniProt P31266 53-474); assay: ITC; cofactor (RAM peptide, Hairless or SHARP) in the syringe, Su(H) or Rbpj in the cell; 50 mM sodium phosphate, 150 mM sodium chloride; 20 injections, triplicate, one site model; 25°C by the legend, 20°C by the methods
T4 construct: also called WT Rbpj; WT RBPJ; source: E. coli BL21 Tuner, purified (ammonium sulfate, glutathione resin, PreScission cut, SP ion exchange)

mouse Rbpj (53-474) E89G = target: T5, mouse Rbpj (53-474) E89G (mouse, UniProt P31266 53-474, E89G); assay: as above
T5 construct: also called Rbpj E89G; E89G (analogous to human RBPJ E63G); source: E. coli BL21 Tuner, purified (ammonium sulfate, glutathione resin, PreScission cut, SP ion exchange)

[2] = target: T6, mouse Rbpj (53-474) K195E (mouse, UniProt P31266 53-474, K195E); assay: as above
T6 construct: also called Rbpj K195E; K195E (analogous to human RBPJ K169E); source: E. coli BL21 Tuner, purified (ammonium sulfate, glutathione resin, PreScission cut, SP ion exchange)
T6 sequence (P31266 53-474 K195E): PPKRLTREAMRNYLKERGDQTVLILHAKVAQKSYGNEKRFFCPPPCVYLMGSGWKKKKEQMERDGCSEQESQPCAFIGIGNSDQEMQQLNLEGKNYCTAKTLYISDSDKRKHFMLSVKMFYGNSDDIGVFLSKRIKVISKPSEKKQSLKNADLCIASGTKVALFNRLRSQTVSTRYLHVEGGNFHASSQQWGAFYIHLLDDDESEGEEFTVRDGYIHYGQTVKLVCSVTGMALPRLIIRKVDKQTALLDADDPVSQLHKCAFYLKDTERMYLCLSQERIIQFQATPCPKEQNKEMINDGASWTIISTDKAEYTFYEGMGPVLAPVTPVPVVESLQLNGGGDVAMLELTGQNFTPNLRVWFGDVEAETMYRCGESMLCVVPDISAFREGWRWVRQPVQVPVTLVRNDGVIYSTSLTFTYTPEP

T3 sequence (P31266 53-474 E89G): as the sequence (P31266 53-474 K195E) above, with E37G, E143K counted along it
T1 sequence (P31266 53-474 K195E): as the sequence (P31266 53-474 K195E) above
T2 sequence (P31266 53-474): as the sequence (P31266 53-474 K195E) above, with E143K counted along it
T5 sequence (P31266 53-474 E89G): as the sequence (P31266 53-474 K195E) above, with E37G, E143K counted along it
T4 sequence (P31266 53-474): as the sequence (P31266 53-474 K195E) above, with E143K counted along it

Binder | Ka [1] [M⁻¹] | Kd [1] [nM] | Ka (mouse Rbpj WT (53-474)) [M⁻¹] | Kd (mouse Rbpj WT (53-474)) [nM] | Ka (mouse Rbpj E89G (53-474)) [M⁻¹] | Kd (mouse Rbpj E89G (53-474)) [nM] | Kd (mouse Rbpj (53-474) WT) [nM] | Kd (mouse Rbpj (53-474) E89G) [nM] | Kd [2] [nM]
VLLSRKRRRQHGQLWFPEGFKVSEASKK (Notch1, RAM domain; also called mNotch1 RAM; mouse Notch 1 RAM; source: synthetic peptide (Peptide2.0, 95% purity)) [Notch1 RAM peptide (residues 1754-1781)] | 5.1e+07 | 22.4 | 4.8e+07 | 20.8 | 5.6e+07 | 19.9 | – | – | –
SHARP residues 2776-2833 (domain or fragment, human, UniProt Q96T58 2776-2833, looked up, called mouse SHARP in the results and the legend; also called mouse SHARP; mouse co-repressor SHARP; source: recombinant from pSMT3, purified as previously described) RASANENSRFHPGSMPVIDDRPADAGSGAGLRVNTSEGVVLLSYSGQKTEGPQRISAK | – | – | – | – | – | – | ~5 | ~5 | 21
SHARP residues 2776-2833 (domain or fragment, human, UniProt Q96T58 2776-2833, looked up, the methods say human SHARP, the results and legend say mouse SHARP; species told as human in the methods and as mouse in the results and legend; also called mouse SHARP; source: bacterial recombinant, pSMT3, purified as previously described) RASANENSRFHPGSMPVIDDRPADAGSGAGLRVNTSEGVVLLSYSGQKTEGPQRISAK | 5.8e+07 | 21.1 | 1.5e+09 | 3.5 | 2.9e+08 | 5.2 | – | – | –
VLLSRKRRRQHGQLWFPEGFKVSEASKK (Notch1 RAM domain; the methods give human Notch1 residues 1754-1781, the results and the legend call it the mouse RAM domain; Methods say human Notch1 residues, results say mouse; also called mouse Notch 1 RAM; mouse RAM domain from Notch1; source: synthetic peptide (Peptide2.0, 95% purity)) [Notch1 RAM peptide (human Notch1 residues 1754-1781)] | – | – | – | – | – | – | ~20 | ~20 | ~20
